From IntAct's records for PubMed 9701578

B1: Receptor protein kinase CLAVATA1 (Arabidopsis thaliana (Mouse-ear cress)), Q9SYQ8 (parent)
chain: MAMRLLKTHLLFLHLYLFFSPCFAYTDMEVLLNLKSSMIGPKGHGLHDWIHSSSPDAHCSFSGVSCDDDARVISLNVSFTPLFGTISPEIGMLTHLVNLTLAANNFTGELPLEMKSLTSLKVLNISNNGNLTGTFPGEILKAMVDLEVLDTYNNNFNGKLPPEMSELKKLKYLSFGGNFFSGEIPESYGDIQSLEYLGLNGAGLSGKSPAFLSRLKNLREMYIGYYNSYTGGVPPEFGGLTKLEILDMASCTLTGEIPTSLSNLKHLHTLFLHINNLTGHIPPELSGLVSLKSLDLSINQLTGEIPQSFINLGNITLINLFRNNLYGQIPEAIGELPKLEVFEVWENNFTLQLPANLGRNGNLIKLDVSDNHLTGLIPKDLCRGEKLEMLILSNNFFFGPIPEELGKCKSLTKIRIVKNLLNGTVPAGLFNLPLVTIIELTDNFFSGELPVTMSGDVLDQIYLSNNWFSGEIPPAIGNFPNLQTLFLDRNRFRGNIPREIFELKHLSRINTSANNITGGIPDSISRCSTLISVDLSRNRINGEIPKGINNVKNLGTLNISGNQLTGSIPTGIGNMTSLTTLDLSFNDLSGRVPLGGQFLVFNETSFAGNTYLCLPHRVSCPTRPGQTSDHNHTALFSPSRIVITVIAAITGLILISVAIRQMNKKKNQKSLAWKLTAFQKLDFKSEDVLECLKEENIIGKGGAGIVYRGSMPNNVDVAIKRLVGRGTGRSDHGFTAEIQTLGRIRHRHIVRLLGYVANKDTNLLLYEYMPNGSLGELLHGSKGGHLQWETRHRVAVEAAKGLCYLHHDCSPLILHRDVKSNNILLDSDFEAHVADFGLAKFLVDGAASECMSSIAGSYGYIAPEYAYTLKVDEKSDVYSFGVVLLELIAGKKPVGEFGEGVDIVRWVRNTEEEITQPSDAAIVVAIVDPRLTGYPLTSVIHVFKIAMMCVEEEAAARPTMREVVHMLTNPPKSVANLIAF
partner: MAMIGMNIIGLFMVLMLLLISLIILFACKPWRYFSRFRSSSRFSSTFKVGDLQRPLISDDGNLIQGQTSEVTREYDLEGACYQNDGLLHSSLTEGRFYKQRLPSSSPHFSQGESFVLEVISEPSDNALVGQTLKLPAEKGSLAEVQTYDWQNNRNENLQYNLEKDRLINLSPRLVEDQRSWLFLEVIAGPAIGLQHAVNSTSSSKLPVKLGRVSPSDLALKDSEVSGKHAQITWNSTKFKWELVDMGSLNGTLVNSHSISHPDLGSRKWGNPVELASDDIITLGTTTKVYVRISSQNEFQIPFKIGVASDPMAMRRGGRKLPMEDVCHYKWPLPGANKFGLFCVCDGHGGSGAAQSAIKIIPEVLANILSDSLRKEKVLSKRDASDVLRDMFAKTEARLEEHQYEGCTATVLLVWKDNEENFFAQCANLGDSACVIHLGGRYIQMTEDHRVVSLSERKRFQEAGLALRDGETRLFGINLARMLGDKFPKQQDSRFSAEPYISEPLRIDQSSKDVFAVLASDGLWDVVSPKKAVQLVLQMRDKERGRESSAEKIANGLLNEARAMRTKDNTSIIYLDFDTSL

Variants of: B1
Conditions: with KAPP

| effect of a mutation on the interaction | Variant |
| --- | --- |
| disrupting interaction | K720E |
